{"source": "IntAct's records for PubMed 22745600", "key": {"[1]": {"molecular_target": "pbx1_mouse Pbx1 (UniProt P41778)", "sequence (P41778 whole entry)": "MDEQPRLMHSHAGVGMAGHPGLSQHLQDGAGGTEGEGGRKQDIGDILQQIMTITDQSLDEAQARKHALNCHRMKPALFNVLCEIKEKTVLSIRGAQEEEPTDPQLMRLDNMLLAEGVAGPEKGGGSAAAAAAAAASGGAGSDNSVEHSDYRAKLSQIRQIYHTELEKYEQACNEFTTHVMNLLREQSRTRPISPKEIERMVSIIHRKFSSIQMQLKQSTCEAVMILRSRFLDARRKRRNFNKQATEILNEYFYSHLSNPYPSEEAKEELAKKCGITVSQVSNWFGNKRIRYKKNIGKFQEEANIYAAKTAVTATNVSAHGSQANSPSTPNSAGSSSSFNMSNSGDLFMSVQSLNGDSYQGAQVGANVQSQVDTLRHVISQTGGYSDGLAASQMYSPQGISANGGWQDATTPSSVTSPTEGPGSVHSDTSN"}, "[2]": {"molecular_target": "exd_drome exd (UniProt P40427)", "sequence (P40427 whole entry)": "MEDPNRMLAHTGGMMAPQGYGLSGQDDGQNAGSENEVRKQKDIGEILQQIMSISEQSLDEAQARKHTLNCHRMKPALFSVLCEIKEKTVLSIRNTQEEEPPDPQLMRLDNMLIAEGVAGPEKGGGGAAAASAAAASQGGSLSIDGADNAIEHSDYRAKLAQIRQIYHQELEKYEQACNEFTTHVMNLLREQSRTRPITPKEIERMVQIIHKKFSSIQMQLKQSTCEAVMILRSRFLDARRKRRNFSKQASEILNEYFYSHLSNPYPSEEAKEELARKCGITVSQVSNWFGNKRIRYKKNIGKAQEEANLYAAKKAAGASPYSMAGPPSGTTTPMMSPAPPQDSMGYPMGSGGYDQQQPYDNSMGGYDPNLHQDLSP"}, "[3]": {"molecular_target": "exd_drome exd (UniProt P40427)", "remark": "listed apart in the source"}, "[4]": {"molecular_target": "exd_drome exd (UniProt P40427)", "remark": "listed apart in the source"}}, "data": [{"substance": "Homeobox protein Hox-B8 (Mus musculus), P09632 W137A;M138A", "values": [{"measurement": "effect of a mutation on the interaction", "setting": "[1]", "value": "decreasing interaction strength"}]}, {"substance": "Homeobox protein abdominal-A (Drosophila melanogaster (Fruit fly)), P29555 E462A;I463A;N464A;E465A", "values": [{"measurement": "effect of a mutation on the interaction", "setting": "[2]", "value": "decreasing interaction strength"}]}, {"substance": "Homeobox protein abdominal-A (Drosophila melanogaster (Fruit fly)), P29555 T375A;D376A;W377A", "values": [{"measurement": "effect of a mutation on the interaction", "setting": "[2]", "value": "decreasing interaction strength"}]}, {"substance": "Homeotic protein labial (Drosophila melanogaster (Fruit fly)), P10105 K393A;W394A;M395A", "values": [{"measurement": "effect of a mutation on the interaction", "setting": "[3]", "value": "decreasing interaction strength"}]}, {"substance": "Homeotic protein ultrabithorax (Drosophila melanogaster (Fruit fly)), P83949 K358A;E359A;N361A;E362A;Q363A", "values": [{"measurement": "effect of a mutation on the interaction", "setting": "[4]", "value": "decreasing interaction strength"}]}]}
